In test [1] the target is T1, CD55 (UniProt P08174 35-353, limits assumed).
T1 construct: whole, on cells; also called CD55 on Rituximab resistant Raji cells (RRCL)
T1 sequence (looked up): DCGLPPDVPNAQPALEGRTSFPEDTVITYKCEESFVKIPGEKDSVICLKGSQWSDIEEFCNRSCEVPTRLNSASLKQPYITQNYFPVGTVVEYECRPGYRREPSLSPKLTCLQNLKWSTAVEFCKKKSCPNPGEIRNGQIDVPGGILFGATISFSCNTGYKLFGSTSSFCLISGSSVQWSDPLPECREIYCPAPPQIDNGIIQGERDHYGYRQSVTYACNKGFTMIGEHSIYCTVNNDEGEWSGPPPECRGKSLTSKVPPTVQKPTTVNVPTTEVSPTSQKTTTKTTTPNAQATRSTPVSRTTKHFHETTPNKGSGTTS
The experiment in a line: binding at 5 µg/ml, the baseline itself; format not stated.

Test [2] concerns the target T2, CD20 (UniProt P11836 1-297, limits assumed).
T2 construct: whole, on cells; also called CD20 on Raji cells
T2 sequence (looked up): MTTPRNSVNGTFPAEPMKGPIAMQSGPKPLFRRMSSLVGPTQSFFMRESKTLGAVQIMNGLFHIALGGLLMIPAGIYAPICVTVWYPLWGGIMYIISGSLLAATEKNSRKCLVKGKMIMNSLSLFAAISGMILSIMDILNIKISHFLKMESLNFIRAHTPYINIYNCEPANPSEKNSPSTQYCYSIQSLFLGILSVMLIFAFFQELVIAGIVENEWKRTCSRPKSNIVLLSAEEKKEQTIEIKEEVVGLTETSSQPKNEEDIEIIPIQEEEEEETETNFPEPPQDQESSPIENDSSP
The experiment in a line: flow cytometry binding to CD20+ Raji cells, antibody titration, Cy3 goat anti-human IgG detection. (In general: Flow cytometry measures light scatter and fluorescence of single cells or particles in a stream.)

In test [3] the target is T3, CD3 (Homo sapiens (Human), UniProt P07766 23-207; P04234 22-171; P09693 23-182).
T3 construct: also called CD3 on Jurkat cells
T3 sequence (P07766 23-207 limits assumed, chain 1 of 3): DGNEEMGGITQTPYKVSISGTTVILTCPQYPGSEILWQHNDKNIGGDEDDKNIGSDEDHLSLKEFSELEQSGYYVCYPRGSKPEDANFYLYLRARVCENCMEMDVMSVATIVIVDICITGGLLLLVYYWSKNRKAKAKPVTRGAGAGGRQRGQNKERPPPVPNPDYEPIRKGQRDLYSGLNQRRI
T3 sequence (P04234 22-171 limits assumed, chain 2 of 3): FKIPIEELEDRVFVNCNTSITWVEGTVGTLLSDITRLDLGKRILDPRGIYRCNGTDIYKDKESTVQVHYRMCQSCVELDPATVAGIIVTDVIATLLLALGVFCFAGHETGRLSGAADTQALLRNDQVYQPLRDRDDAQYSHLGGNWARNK
T3 sequence (P09693 23-182 limits assumed, chain 3 of 3): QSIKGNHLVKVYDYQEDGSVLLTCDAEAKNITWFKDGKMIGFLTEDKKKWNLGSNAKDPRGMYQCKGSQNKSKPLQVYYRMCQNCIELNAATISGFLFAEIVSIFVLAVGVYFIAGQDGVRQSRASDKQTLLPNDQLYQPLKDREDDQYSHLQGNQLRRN
The experiment in a line: flow cytometry binding to CD3+ Jurkat cells, antibody titration, Cy3 goat anti-human IgG detection.

The target in test [4] is PD-L1 (UniProt Q9NZQ7 19-290, limits assumed). The experiment in a line: flow cytometry binding to MDA231 cells, Cy3 goat anti-human IgG detection. The method, then:
(§1) a) MDA231 cells are prepared in media at a concentration of 1×10⁶ cells/mL. [0411] b) Dilute antibody sample to an appropriate concentration. [0412] c) Transfer 50 μL, of cells into each well of 96 well V-bottom plate. [0413] d) Transfer 50 μL, of antibodies into wells of 96 well V-bottom plate. [0414] e) Incubate cell mixture for 60 min at room temperature. [0415] f) Spin cells down and wash twice with FACS buffer. [0416] g) Re-suspend cells in 100 μL, FACS buffer containing Cy3 conjugated goat anti-human (GAH) IgG (1:500) in each well. [0417] h) Incubate at room temperature for 30 min, and wash with FACS buffer×2.

The target in test [5] is T1, CD55. Described as above. As for the experimental part: as §1

Chain of PD-L1 (Q9NZQ7 19-290 limits assumed): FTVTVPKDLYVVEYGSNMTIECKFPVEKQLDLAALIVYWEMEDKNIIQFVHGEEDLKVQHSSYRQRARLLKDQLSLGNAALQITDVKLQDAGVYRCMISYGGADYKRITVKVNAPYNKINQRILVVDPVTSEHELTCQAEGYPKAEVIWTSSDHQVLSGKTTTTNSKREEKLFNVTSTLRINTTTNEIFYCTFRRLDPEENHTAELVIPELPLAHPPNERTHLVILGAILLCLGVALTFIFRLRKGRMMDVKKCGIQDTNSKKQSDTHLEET

B1: parental anti-CD55 antibody (CD55 wt), monoclonal antibody having CD55VH (SEQ ID NO: 14 without any mutations) and the VL (SEQ ID NO: 15) (antibody, V domains shown)
VH: QVKLQESGGGLVQPGGSLKLSCAASGFTFSGYGMSWIRQTPDKRLEWVATINSGGSYTYYSDSVKGRFTISRDNVKNTLYLQMSSLKSEDTAMYYCARRNGTLYYYLMDYWGRGTLVTVSS
VL: QSVLTQPPSASGSPGQSVTISCTGTSSDVGGYNYVSWYQQHPGKAPKFMIYDVSKRPSGVSNRFSGSKSGNTASLTISGVQAEDEADYYCSSYTSASTVIFGGGTKLTVL
notes: Variable domains derived from a CD55 scFv; also called CD55VH + VL; CD55 parental Ab
Turning to B1, in test [1], the “Function remaining percentage (5 µg/ml)” value was determined as 100%.

B2: parental anti-CD20 IgG (Parental CD20) (antibody, V domains shown)
VH: QVQLQQPGAELVKPGASVKMSCKASGYTFTSYNMHWVKQTPGRGLEWIGAIYPGNGDTSYNQKFKGKATLTADKSSSTAYMQLSSLTSEDSAVYYCARSTYYGGDWYFNVWGAGTTVTVSA
VL: QIVLSQSPAILSASPGEKVTMTCRASSSVSYIHWFQQKPGSSPKPWIYATSNLASGVPVRFSGSGSGTSYSLTISRVEAEDAATYYCQQWTSNPPTFGGGTKLEIKR
notes: IgG; also called Rituximab; CD20 parental Ab
The term EC50 (read off the curve) denotes the concentration at which the effect is half-maximal. High values mean lower potency in that assay, low ones higher potency in that assay. For the molecule B2, the “EC50 (read off the curve)” value in test [2] is around 0.2 µg/mL. Moreover, the binding result in test [3] was “no binding (tested: 10 µg/ml)”.

B3: parental anti-CD3 IgG (Parental CD3) (antibody, V domains shown)
VH: QVQLQQSGAELARPGASVKMSCKASGYTFTSYTMHWVKQRPGQGLEWIGYINPSSGYTKYNQKFKDKATLTADKSSSTAYMQLSSLTSEDSAVYYCARWQDYDVYFDYWGQGTTLTVSS
VL: QIVLSQSPAILSASPGEKVTMTCRASSSVSYMHWYQQKPGSSPKPWIYATSNLASGVPARFSGSGSGTSYSLTISRVEAEDAATYYCQQWSSNPPTFGGGTKLETKR
notes: IgG; also called MAb 12F6; CD3 parental Ab
For the molecule B3, the binding result in test [2] is “no binding (tested: 10 µg/ml)”.

B4: CD20 homodimer IgG containing the designed VH sequence (SEQ ID NO: 1) and the common VL sequence (SEQ ID NO: 3) (antibody, V domains shown)
VH: QVQLQQPGAELVKPGASVKMSCKASGYTFTSYNMHWVKQTPGRGLEWIGAIYPGNGDTSYNQKFKGKATLTADKSSSTAYMQLSSLRSEDSAVYYCARSTYYGGDWYFNVWGAGTTVTVSA
VL: QIVLSQSPAILSASPGEKVTMTCRASSSVSYIHWFQQKPGSSPKPWIYATSNLASGVPVRFSGSGSGTSYSLTISRVEAEDAATYYCQQWTSNPPTFGGGTKLEIKR
notes: IgG homodimer with two VHa and two common VL; also called redesigned Rituximab; antibody A
In the case of B4, in test [2], the “EC50 (read off the curve)” value is around 0.4 µg/mL. Also, the binding result in test [3] was “no binding (tested: 10 µg/ml)”.

B5: CD3 homodimer IgG containing the designed VH sequence (SEQ ID NO: 2) and the common VL sequence (SEQ ID NO: 3) (antibody, V domains shown)
VH: EVQLQESGAELARPGASVKMSCKASGYTFTSYTMHWVKQRPGEGLEWIGYINPSSGYTKYNQKFKDKATLTADKSSSTAYMELSSLTSEDSAVYYCARWQDYDVYFDYWGEGTTLTVSS
VL: QIVLSQSPAILSASPGEKVTMTCRASSSVSYIHWFQQKPGSSPKPWIYATSNLASGVPVRFSGSGSGTSYSLTISRVEAEDAATYYCQQWTSNPPTFGGGTKLEIKR
notes: IgG homodimer with two VHb and two common VL; also called redesigned 12F6; antibody B
As to B5, the binding result in test [2] is on record as “no binding (tested: 10 µg/ml)”.

B6: Anti-PD-L1 homodimer IgG (PD-L1 v1) containing the designed VH sequence (SEQ ID NO: 4) and the common VL sequence (SEQ ID NO: 6) (antibody, V domains shown)
VH: EVQLLESGGGLVEPGGSLRLSCAASGFTFSSYIMMWVRQAPGKGLEWVSSIYPSGGITFYADTVKGRFTISRDNSKNTLYLQMNSLRAEDTAVYYCARIKLGTVTTVDYWGEGTLVTVSS
VL: QSALTQPASVSGSPGQSITISCTGTSSDVGGYNYVSWYQQHPGKAPKLMIYDVSKRPSGVSNRFSGSKSGNTASLTISGLQAEDEADYYCSSYTSASTRIFGGGTKVTVLR
notes: Homodimer IgG; also called PDL1 homodimer version 1
For B6, the binding result in test [4] was “binds”.

B7: Anti-CD55 homodimer IgG (CD55 v1) containing the designed VH sequence (SEQ ID NO: 5) and the common VL sequence (SEQ ID NO: 6) (antibody, V domains shown)
VH: QVKLQESGGGLVKPGGSLKLSCAASGFTFSGYGMSWIRQTPGKRLEWVATINSGGSYTYYSDSVKGRFTISRDNVKNTLYLQMSSLKSEDTAMYYCARRNGTLYYYLMDYWGRGTLVTVSS
VL: QSALTQPASVSGSPGQSITISCTGTSSDVGGYNYVSWYQQHPGKAPKLMIYDVSKRPSGVSNRFSGSKSGNTASLTISGLQAEDEADYYCSSYTSASTRIFGGGTKVTVLR
notes: Homodimer IgG; also called CD55 homodimer version 1
Turning to B7, in test [5], the binding result was “binds”.
